In patent US20030152571A1 (GlaxoSmithKline, published 2003):

What was measured:
[1] = target: rabbit αvβ3 receptor on rabbit smooth muscle cells (rabbit, UniProt A0A5F9DQF7 1-123); test: cell-based or functional assay
[2] = target: T1, human αvβ3 receptor on cells or in tissue (human, UniProt P06756 31-1048; P05106 27-788); test: cell-based or functional assay
[3] = target: T2, human vitronectin receptor αvβ3 purified from human placenta (human, UniProt P06756 31-1048; P05106 27-788); test: BIAcore; immobilized αvβ3, mAb in solution
T2 construct: mature; Detergent-solubilised native heterodimer; also called αvβ3 receptor; human αvβ3 protein receptor
Description: (§1) The αᵥβ₃ was immobilized by inserting the αᵥβ₃ into a phospholipid vesicle and producing a hybrid bilayer membrane on a hydrophobic sensor surface. […] Samples of the mAbs were passed over this surface and the rates at which they bound and then dissociated from the surface were measured and analyzed using software provided with the instrument.

[4] = target: T2, human vitronectin receptor αvβ3 …; test: BIAcore; αvβ3 in a hybrid bilayer membrane on the sensor, mAb at 100, 25, 6 nM in triplicate; αvβ3 immobilized in hybrid bilayer membrane on the sensor; mAb at 100, 25, 6 nM in triplicate
Description: as §1

[5] = target: T1, human αvβ3 receptor on cells or in …; test: method not stated; reference is the rabbit αvβ3 receptor
[6] = target: T2, human vitronectin receptor αvβ3 …; test: BIAcore, αvβ3 immobilized in a hybrid bilayer membrane on the sensor surface, mAb in solution
Description: as §1

[7] = target: T2, human vitronectin receptor αvβ3 …; test: not stated ('depending on the assay employed')

T2 sequence (P06756 31-1048, form in doubt, chain 1 of 2): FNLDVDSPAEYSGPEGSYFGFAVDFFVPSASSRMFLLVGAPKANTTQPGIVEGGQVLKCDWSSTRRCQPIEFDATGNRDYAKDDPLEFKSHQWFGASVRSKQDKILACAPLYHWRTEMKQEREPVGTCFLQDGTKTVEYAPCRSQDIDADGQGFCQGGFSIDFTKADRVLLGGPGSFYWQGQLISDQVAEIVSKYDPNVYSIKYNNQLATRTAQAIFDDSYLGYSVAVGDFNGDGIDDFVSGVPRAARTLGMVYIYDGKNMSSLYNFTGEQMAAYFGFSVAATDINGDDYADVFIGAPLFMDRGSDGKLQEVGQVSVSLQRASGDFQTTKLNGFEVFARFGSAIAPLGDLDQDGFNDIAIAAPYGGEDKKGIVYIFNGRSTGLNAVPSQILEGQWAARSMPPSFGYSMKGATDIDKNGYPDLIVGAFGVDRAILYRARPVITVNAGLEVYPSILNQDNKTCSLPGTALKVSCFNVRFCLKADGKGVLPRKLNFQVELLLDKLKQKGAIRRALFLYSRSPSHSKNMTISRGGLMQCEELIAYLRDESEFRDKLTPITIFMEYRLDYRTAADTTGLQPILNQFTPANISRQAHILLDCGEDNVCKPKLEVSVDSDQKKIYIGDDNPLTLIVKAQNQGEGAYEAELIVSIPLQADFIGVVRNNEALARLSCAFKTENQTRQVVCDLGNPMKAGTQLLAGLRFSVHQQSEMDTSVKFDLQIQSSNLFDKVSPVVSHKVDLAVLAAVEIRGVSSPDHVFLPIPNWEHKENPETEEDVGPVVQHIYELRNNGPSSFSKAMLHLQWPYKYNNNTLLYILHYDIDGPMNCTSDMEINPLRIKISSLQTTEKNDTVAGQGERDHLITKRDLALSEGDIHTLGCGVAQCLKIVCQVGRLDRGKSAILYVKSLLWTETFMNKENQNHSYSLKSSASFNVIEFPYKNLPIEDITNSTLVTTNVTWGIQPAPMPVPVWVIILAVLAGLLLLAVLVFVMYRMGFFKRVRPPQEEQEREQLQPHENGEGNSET
T2 sequence (P05106 27-788, form in doubt, chain 2 of 2): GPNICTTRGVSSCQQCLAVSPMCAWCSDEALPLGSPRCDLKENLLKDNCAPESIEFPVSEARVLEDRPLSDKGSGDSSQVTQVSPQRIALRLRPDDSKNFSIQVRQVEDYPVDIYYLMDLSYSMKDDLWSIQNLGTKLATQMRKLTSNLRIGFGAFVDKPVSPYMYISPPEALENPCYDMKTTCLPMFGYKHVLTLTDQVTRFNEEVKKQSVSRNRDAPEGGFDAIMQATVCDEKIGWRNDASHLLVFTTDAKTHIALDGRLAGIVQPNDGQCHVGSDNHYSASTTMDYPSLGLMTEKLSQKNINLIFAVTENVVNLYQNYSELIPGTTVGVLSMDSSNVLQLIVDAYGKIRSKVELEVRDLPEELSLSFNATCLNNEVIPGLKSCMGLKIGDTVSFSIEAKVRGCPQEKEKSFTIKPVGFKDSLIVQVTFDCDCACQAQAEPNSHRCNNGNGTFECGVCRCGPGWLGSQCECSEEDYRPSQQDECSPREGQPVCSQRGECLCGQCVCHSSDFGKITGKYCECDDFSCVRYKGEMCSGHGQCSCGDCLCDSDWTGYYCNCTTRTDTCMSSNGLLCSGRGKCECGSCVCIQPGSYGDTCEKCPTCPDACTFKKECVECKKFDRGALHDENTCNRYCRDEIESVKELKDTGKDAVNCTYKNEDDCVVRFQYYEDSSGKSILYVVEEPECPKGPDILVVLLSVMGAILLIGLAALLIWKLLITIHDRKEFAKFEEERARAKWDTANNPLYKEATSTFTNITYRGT
Chain of rabbit αvβ3 receptor on rabbit smooth muscle cells (A0A5F9DQF7 entry or part of it): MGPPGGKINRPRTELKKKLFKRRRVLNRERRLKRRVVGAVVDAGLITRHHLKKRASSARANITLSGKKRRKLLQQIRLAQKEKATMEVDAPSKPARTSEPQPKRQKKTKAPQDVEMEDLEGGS
T1 sequence (P06756 31-1048, chain 1 of 2): as the sequence (P06756 31-1048, form in doubt, chain 1 of 2) above
T1 sequence (P05106 27-788, chain 2 of 2): as the sequence (P05106 27-788, form in doubt, chain 2 of 2) above

B1: humanized D12 antibody HZ-D12 (IgG1) (antibody, V domains shown)
VH: QVQLVQSGAEVKKPGASVKVSCKASGYAFTSYNMYWVRQAPGQGLEWIGYIDPYNGDTFYNQKFKGKATLTVDKSTSTAYMELSSLRSEDTAVYYCARQNYGSFAYWGQGTLVTVSS
VL: DIVLTQSPGTLSLSPGERATLSCRASQSISNHLHWYQQKPGQAPRLLIKYASQSISGIPSRFSGSGSGTDFTLTISRLEPEDFAVYYCQQSNSWPFTFGQGTKVEIK
notes: also called HuD12; D12HZHC 1-0 / D12HZLC 1-0
IC50, rabbit SMC migration (% control) [1]: 42 mg/L
IC50 (read off the curve), adhesion of αvβ3-transfected HEK293 cells to vitronectin (O.D. 600nM) [2]: ~0.1 mg/L
Kd [3]: 1 nM

B2: humanized D12 antibody HZ-D12 (IgG4) (antibody, V domains shown)
VH: B1 VH
VL: B1 VL
Kd [3]: 1.1 nM

B3: murine monoclonal antibody D12 (antibody, V domains shown)
VH: EIQLQQSGPEVVKPGASVKVSCKASGYAFTSYNMYWVKQSHGKSLEWIGYIDPYNGDTFYNQKFKGKATLTVDKSSSTAYMHLNSLTSEDSAVFYCARQNYGSFAYWGQGTLVTVSA
VL: DIVLTQSPATLSVTPGDSVSLSCRASQSISNHLHWYQQRSHESPRLLIKYASQSISGIPSRFRGSGSGTDFTLNINILETEDFGMYFCQQSNSWPFTFGSGTNLEIKR
notes: also called mAb D12; murine D12
Kd [4]: 0.53 nM
IC50, rabbit SMC migration (% control) [1]: 18 mg/L
fold higher affinity against human αvβ3 than against the rabbit receptor [5]: 10 fold
koff [6]: 0.00041 s⁻¹
kon [6]: 770000 M⁻¹ s⁻¹
Kd [3]: 1.3 nM
Kd [7]: 1 to 3 nM
